From patent US20240226274A1
Values joined by “and” are separate entries in the source; they are usually repeats but may differ in a detail not shown here. Identical values can stand only once.

Columns and labels:
[1] = target: RSV F DS-Cav1 (respiratory syncytial virus); test: BLI; antibody on Protein A sensor, F protein in solution; RT, not heated
[2] = target: RSV F design R-1b (respiratory syncytial virus (A2 strain)); test: as above
[3] = target: postfusion RSV A2 F (respiratory syncytial virus A2) (UniProt P03420); test: as above
[4] = target: postfusion RSV A2 F (respiratory syncytial virus A2) (UniProt P03420); test: BLI; antibody on Protein A sensor; F protein heated 1 h at 60 C
[5] = target: RSV F DS-Cav1 (respiratory syncytial virus); test: BLI; antibody on Protein A sensor; F protein heated 1 h at 55 C
[6] = target: RSV F design R-1b (respiratory syncytial virus (A2 strain)); test: as above
[7] = target: RSV F DS-Cav1 (respiratory syncytial virus); test: BLI; antibody on Protein A sensor; F protein heated 1 h at 60 C
[8] = target: hMPV F design M-104 (human metapneumovirus) (UniProt Q6WB98); test: BLI; antibody on Protein A sensor, F protein in solution; RT, not heated
[9] = target: hMPV F 115-BV (human metapneumovirus) (UniProt Q6WB98); test: as above
[10] = target: hMPV F design M-104 (human metapneumovirus) (UniProt Q6WB98); test: BLI; antibody on Protein A sensor; F protein heated 1 h at 55 C

Substance	Kd [1]	kon [1]	Kd [2]	koff [2]	kon [2]	kon [3]	kon [4]	kon [5]	Kd [6]	koff [6]	kon [6]	kon [7]	kon [8]	kon [9]	kon [10]
antibody 131-2A	133 nM and 34.4 nM and 17.4 nM	8290 M⁻¹ s⁻¹ and 9190 M⁻¹ s⁻¹ and 17600 M⁻¹ s⁻¹	6.47 nM and 7.43 nM and 11.9 nM	0.00031 s⁻¹ and 0.000353 s⁻¹ and 0.0004 s⁻¹	47900 M⁻¹ s⁻¹ and 47500 M⁻¹ s⁻¹ and 33700 M⁻¹ s⁻¹	400000 M⁻¹ s⁻¹ and 409000 M⁻¹ s⁻¹ and 485000 M⁻¹ s⁻¹	522000 M⁻¹ s⁻¹ and 482000 M⁻¹ s⁻¹ and 452000 M⁻¹ s⁻¹								
antibody AM14		161000 M⁻¹ s⁻¹ and 204000 M⁻¹ s⁻¹ and 181000 M⁻¹ s⁻¹	0.497 nM and 0.489 nM and 0.568 nM	0.000111 s⁻¹ and 0.000124 s⁻¹ and 0.000101 s⁻¹	203000 M⁻¹ s⁻¹ and 227000 M⁻¹ s⁻¹ and 219000 M⁻¹ s⁻¹			50300 M⁻¹ s⁻¹ and 58500 M⁻¹ s⁻¹ and 50100 M⁻¹ s⁻¹	0.134 nM and 0.133 nM	1.15e-05 s⁻¹ and 1.31e-05 s⁻¹	88700 M⁻¹ s⁻¹ and 86300 M⁻¹ s⁻¹ and 99100 M⁻¹ s⁻¹				
antibody D25		121000 M⁻¹ s⁻¹ and 187000 M⁻¹ s⁻¹ and 149000 M⁻¹ s⁻¹			179000 M⁻¹ s⁻¹ and 144000 M⁻¹ s⁻¹ and 151000 M⁻¹ s⁻¹			213000 M⁻¹ s⁻¹ and 160000 M⁻¹ s⁻¹ and 142000 M⁻¹ s⁻¹			156000 M⁻¹ s⁻¹ and 120000 M⁻¹ s⁻¹ and 121000 M⁻¹ s⁻¹	115000 M⁻¹ s⁻¹ and 135000 M⁻¹ s⁻¹ and 132000 M⁻¹ s⁻¹			
antibody MPE8													40100 M⁻¹ s⁻¹ and 32400 M⁻¹ s⁻¹ and 42100 M⁻¹ s⁻¹	14500 M⁻¹ s⁻¹ and 15200 M⁻¹ s⁻¹ and 10900 M⁻¹ s⁻¹	36600 M⁻¹ s⁻¹ and 21700 M⁻¹ s⁻¹ and 25100 M⁻¹ s⁻¹
